Test results: PMC4718896 (Biochemistry, 2015)
Read-outs that look alike come from different tables or passages of the source.

Experiments:
PKR (Homo sapiens) = PKR (Homo sapiens) (UniProt P19525); details: cited from earlier work
AUC [1] = target: the molecule itself; test: AUC
AUC [2] = target: the molecule itself; test: AUC; remark: listed apart in the source

Molecule: PKR (from UniProt P19525)
- Kd (PKR (Homo sapiens)): 500 µM

B1: PKRΔV (human PKR with the variable region of the interdomain linker deleted) (enzyme, UniProt P19525 1-551, looked up)
chain: MAGDLSAGFFMEELNTYRQKQGVVLKYQELPNSGPPHDRRFTFQVIIDGREFPEGEGRSKKEAKNAAAKLAVEILNKEKKAVSPLLLTTTNSSEGLSMGNYIGLINRIAQKKRLTVNYEQCASGVHGPEGFHYKCKMGQKEYSIGTGSTKQEAKQLAAKLAYLQILMNGLRNNQRKAKRSLAPRFDLPDMKETKYTVDKRFGMDFKEIELIGSGGFGQVFKAKHRIDGKTYVIKRVKYNNEKAEREVKALAKLDHVNIVHYNGCWDGFDYDPETSDDSLESSDYDPENSKNSSRSKTKCLFIQMEFCDKGTLEQWIEKRRGEKLDKVLALELFEQITKGVDYIHSKKLIHRDLKPSNIFLVDTKQVKIGDFGLVTSLKNDGKRTRSKGTLRYMSPEQISSQDYGKEVDLYALGLILAELLHVCDTAFETSKFFTDLRDGIISDIFDKKEKTLLQKLLSKKPEDRPNTSEILRTLTVWKKSPEKNERHTC
- Kd (AUC [1]): 1.1 mM
- stoichiometry N (AUC [1]): 2

B2: PKRΔVB (human PKR with the whole interdomain linker, variable and basic regions, deleted) (enzyme, UniProt P19525 1-551, looked up)
chain: MAGDLSAGFFMEELNTYRQKQGVVLKYQELPNSGPPHDRRFTFQVIIDGREFPEGEGRSKKEAKNAAAKLAVEILNKEKKAVSPLLLTTTNSSEGLSMGNYIGLINRIAQKKRLTVNYEQCASGVHGPEGFHYKCKMGQKEYSIGTGSTKQEAKQLAAKLAYLQILETKYTVDKRFGMDFKEIELIGSGGFGQVFKAKHRIDGKTYVIKRVKYNNEKAEREVKALAKLDHVNIVHYNGCWDGFDYDPETSDDSLESSDYDPENSKNSSRSKTKCLFIQMEFCDKGTLEQWIEKRRGEKLDKVLALELFEQITKGVDYIHSKKLIHRDLKPSNIFLVDTKQVKIGDFGLVTSLKNDGKRTRSKGTLRYMSPEQISSQDYGKEVDLYALGLILAELLHVCDTAFETSKFFTDLRDGIISDIFDKKEKTLLQKLLSKKPEDRPNTSEILRTLTVWKKSPEKNERHTC
- Kd (AUC [2]): 1.73 mM
- stoichiometry N (AUC [2]): 2
